According to the Human Domainome abundance scans (Beltran et al. 2025):
± gives the uncertainty stated by the source.

B1: Mineralocorticoid receptor, residues 600 to 675; numbered along this chain, P08235 (parent)
chain: SKICLVCGDEASGCHYGVVTCGSCKVFFKRAVEGQHNYLCAGRNDCIIDKIRRKNCPACRLQKCLQAGMNLGARKS

Variants of: B1
Assay: abundance fitness (aPCA) (normalised: wild type 0, dead -1); higher = more abundant; growth selection in yeast, the domain comes from the species named
Settings: Homo sapiens

Row | Variant | abundance fitness
1 | SKICLVCGDEASGCHYGVVTCGSCKVFFKRAVEGQHNYLCAGRNDCLIDKIRRKNCPACRLQKCLQAGMNLGARKS [I47L] | 0.022 ± 0.044
2 | SKICLVCGDEASGCHYGVVTCGSCKVFFKRAVEGQHNYLCAGRNDCPIDKIRRKNCPACRLQKCLQAGMNLGARKS [I47P] | 0.013 ± 0.058
3 | SKICLVCGDEASGCHYGVVTCGSCKVFFKRAVEGQHNYLCAGRNDCHIDKIRRKNCPACRLQKCLQAGMNLGARKS [I47H] | -0.018 ± 0.043
4 | SKICLVCGDEASGCHYGVVTCGSCKVFFKRAVEGQHNYLCAGRNDCMIDKIRRKNCPACRLQKCLQAGMNLGARKS [I47M] | -0.079 ± 0.09
5 | SKICLVCGDEASGCHYGVVTCGSCKVFFKRAVEGQHNYLCAGRNDCVIDKIRRKNCPACRLQKCLQAGMNLGARKS [I47V] | -0.019 ± 0.058
6 | SKICLVCGDEASGCHYGVVTCGSCKVFFKRAVEGQHNYLCAGRNDCTIDKIRRKNCPACRLQKCLQAGMNLGARKS [I47T] | 0.027 ± 0.049
7 | SKICLVCGDEASGCHYGVVTCGSCKVFFKRAVEGQHNYLCAGRNDCQIDKIRRKNCPACRLQKCLQAGMNLGARKS [I47Q] | -0.024 ± 0.072
8 | SKICLVCGDEASGCHYGVVTCGSCKVFFKRAVEGQHNYLCAGRNDCSIDKIRRKNCPACRLQKCLQAGMNLGARKS [I47S] | 0 ± 0.038
9 | SKICLVCGDEASGCHYGVVTCGSCKVFFKRAVEGQHNYLCAGRNDCRIDKIRRKNCPACRLQKCLQAGMNLGARKS [I47R] | 0.03 ± 0.049
10 | SKICLVCGDEASGCHYGVVTCGSCKVFFKRAVEGQHNYLCAGRNDCYIDKIRRKNCPACRLQKCLQAGMNLGARKS [I47Y] | -0.128 ± 0.05
11 | SKICLVCGDEASGCHYGVVTCGSCKVFFKRAVEGQHNYLCAGRNDCCIDKIRRKNCPACRLQKCLQAGMNLGARKS [I47C] | 0.049 ± 0.057
12 | SKICLVCGDEASGCHYGVVTCGSCKVFFKRAVEGQHNYLCAGRNDCEIDKIRRKNCPACRLQKCLQAGMNLGARKS [I47E] | -0.023 ± 0.14
13 | SKICLVCGDEASGCHYGVVTCGSCKVFFKRAVEGQHNYLCAGRNDCWIDKIRRKNCPACRLQKCLQAGMNLGARKS [I47W] | -0.193 ± 0.1
14 | SKICLVCGDEASGCHYGVVTCGSCKVFFKRAVEGQHNYLCAGRNDCGIDKIRRKNCPACRLQKCLQAGMNLGARKS [I47G] | -0.096 ± 0.067
15 | SKICLVCGDEASGCHYGVVTCGSCKVFFKRAVEGQHNYLCAGRNDCFIDKIRRKNCPACRLQKCLQAGMNLGARKS [I47F] | -0.01 ± 0.047
16 | SKICLVCGDEASGCHYGVVTCGSCKVFFKRAVEGQHNYLCAGRNDCKIDKIRRKNCPACRLQKCLQAGMNLGARKS [I47K] | 0.018 ± 0.11
17 | SKICLVCGDEASGCHYGVVTCGSCKVFFKRAVEGQHNYLCAGRNDCAIDKIRRKNCPACRLQKCLQAGMNLGARKS [I47A] | -0.035 ± 0.055
18 | SKICLVCGDEASGCHYGVVTCGSCKVFFKRAVEGQHNYLCAGRNDCDIDKIRRKNCPACRLQKCLQAGMNLGARKS [I47D] | -0.065 ± 0.057

Row | Variant | abundance fitness
19 | SKICLVCGDEASGCHYGVVTCGSCKVFFKRAVEGQHNYLCAGRNDWIIDKIRRKNCPACRLQKCLQAGMNLGARKS [C46W] | -0.856 ± 0.15
20 | SKICLVCGDEASGCHYGVVTCGSCKVFFKRAVEGQHNYLCAGRNDAIIDKIRRKNCPACRLQKCLQAGMNLGARKS [C46A] | -0.744 ± 0.12
21 | SKICLVCGDEASGCHYGVVTCGSCKVFFKRAVEGQHNYLCAGRNDEIIDKIRRKNCPACRLQKCLQAGMNLGARKS [C46E] | -0.852 ± 0.34
22 | SKICLVCGDEASGCHYGVVTCGSCKVFFKRAVEGQHNYLCAGRNDGIIDKIRRKNCPACRLQKCLQAGMNLGARKS [C46G] | -0.636 ± 0.11
23 | SKICLVCGDEASGCHYGVVTCGSCKVFFKRAVEGQHNYLCAGRNDIIIDKIRRKNCPACRLQKCLQAGMNLGARKS [C46I] | -0.827 ± 0.11
24 | SKICLVCGDEASGCHYGVVTCGSCKVFFKRAVEGQHNYLCAGRNDKIIDKIRRKNCPACRLQKCLQAGMNLGARKS [C46K] | -0.839 ± 0.17
25 | SKICLVCGDEASGCHYGVVTCGSCKVFFKRAVEGQHNYLCAGRNDRIIDKIRRKNCPACRLQKCLQAGMNLGARKS [C46R] | -0.821 ± 0.088
26 | SKICLVCGDEASGCHYGVVTCGSCKVFFKRAVEGQHNYLCAGRNDLIIDKIRRKNCPACRLQKCLQAGMNLGARKS [C46L] | -0.819 ± 0.094
27 | SKICLVCGDEASGCHYGVVTCGSCKVFFKRAVEGQHNYLCAGRNDFIIDKIRRKNCPACRLQKCLQAGMNLGARKS [C46F] | -0.653 ± 0.065
28 | SKICLVCGDEASGCHYGVVTCGSCKVFFKRAVEGQHNYLCAGRNDDIIDKIRRKNCPACRLQKCLQAGMNLGARKS [C46D] | -0.785 ± 0.23
29 | SKICLVCGDEASGCHYGVVTCGSCKVFFKRAVEGQHNYLCAGRNDNIIDKIRRKNCPACRLQKCLQAGMNLGARKS [C46N] | -0.921 ± 0.15
30 | SKICLVCGDEASGCHYGVVTCGSCKVFFKRAVEGQHNYLCAGRNDPIIDKIRRKNCPACRLQKCLQAGMNLGARKS [C46P] | -0.856 ± 0.13
31 | SKICLVCGDEASGCHYGVVTCGSCKVFFKRAVEGQHNYLCAGRNDHIIDKIRRKNCPACRLQKCLQAGMNLGARKS [C46H] | -0.011 ± 0.044
32 | SKICLVCGDEASGCHYGVVTCGSCKVFFKRAVEGQHNYLCAGRNDSIIDKIRRKNCPACRLQKCLQAGMNLGARKS [C46S] | -0.946 ± 0.097
33 | SKICLVCGDEASGCHYGVVTCGSCKVFFKRAVEGQHNYLCAGRNDVIIDKIRRKNCPACRLQKCLQAGMNLGARKS [C46V] | -0.813 ± 0.15
34 | SKICLVCGDEASGCHYGVVTCGSCKVFFKRAVEGQHNYLCAGRNDQIIDKIRRKNCPACRLQKCLQAGMNLGARKS [C46Q] | -0.966 ± 0.2
35 | SKICLVCGDEASGCHYGVVTCGSCKVFFKRAVEGQHNYLCAGRNDMIIDKIRRKNCPACRLQKCLQAGMNLGARKS [C46M] | -0.81 ± 0.3
36 | SKICLVCGDEASGCHYGVVTCGSCKVFFKRAVEGQHNYLCAGRNSCIIDKIRRKNCPACRLQKCLQAGMNLGARKS [D45S] | -0.092 ± 0.037
